Experimental data from doi:10.1101/2025.10.30.685657.
Where two headings read alike, the source gives them in different places.

Experiments:
Assay in all cases: live-cell long-exposure single-molecule localization microscopy
[1] = target: T3SS injectisome of Yersinia enterocolitica (Yersinia enterocolitica (endogenous)) (UniProt Q01245)
[2] = target: T3SS injectisome of Yersinia enterocolitica (Yersinia enterocolitica (endogenous)) (UniProt Q01245); remark: listed apart in the source
[3] = target: T3SS injectisome of Yersinia enterocolitica (Yersinia enterocolitica (endogenous)) (UniProt Q01245); remark: listed apart in the source

| Substance | bound time constant tau (inverse of koff) [1] [s] | short bound time constant tau (short component of the bi-exponential fit) [2] [s] | weighted average bound time constant (short- and long-lived events) [2] [s] | bound time constant tau (inverse of koff) [3] [s] | long bound time constant tau (long component of the bi-exponential fit) [3] [s] | short bound time constant tau (short component of the bi-exponential fit) [3] [s] | weighted average bound time constant (short- and long-lived events) [3] [s] |
| --- | --- | --- | --- | --- | --- | --- | --- |
| Halo-tagged SctQ (from UniProt Q79NI3 1-307) (natural protein) | 4.1 | 2.1 | 2.7 | 2.5 | 23 | 4.5 |  |
| Halo-tagged SctL (from UniProt Q01253 1-223) (natural protein) | 3.9 |  |  | 3.4 |  | 3.1 | 4.4 |
